PMC5794333, “Identification of osmoadaptive strategies in the halophile, heterotrophic ciliate Schmidingerothrix salinarum” (PLoS Biology, 2018)

B1: ICDHE.coli (Escherichia coli K-12) (protein)
chain: MESKVVVPAQGKKITLQNGKLNVPENPIIPYIEGDGIGVDVTPAMLKVVDAAVEKAYKGERKISWMEIYTGEKSTQVYGQDVWLPAETLDLIREYRVAIKGPLTTPVGGGIRSLNVALRQELDLYICLRPVRYYQGTPSPVKHPELTDMVIFRENSEDIYAGIEWKADSADAEKVIKFLREEMGVKKIRFPEHCGIGIKPCSEEGTKRLVRAAIEYAIANDRDSVTLVHKGNIMKFTEGAFKDWGYQLAREEFGGELIDGGPWLKVKNPNTGKEIVIKDVIADAFLQQILLRPAEYDVIACMNLNGDYISDALAAQVGGIGIAPGANIGDECALFEATHGTAPKYAGQDKVNPGSIILSAEMMLRHMGWTEAADLIVKGMEGAINAKTVTYDFERLMDGAKLLKCSEFGDAIIENM
notes: N-terminal His-tag, cloned from genomic DNA into pETDuet-1, E. coli BL21; Ni-NTA
B2: MDHE.coli (Escherichia coli K-12) (protein)
chain: MKVAVLGAAGGIGQALALLLKTQLPSGSELSLYDIAPVTPGVAVDLSHIPTAVKIKGFSGEDATPALEGADVVLISAGVARKPGMDRSDLFNVNAGIVKNLVQQVAKTCPKACIGIITNPVNTTVAIAAEVLKKAGVYDKNKLFGVTTLDIIRSNTFVAELKGKQPGEVEVPVIGGHSGVTILPLLSQVPGVSFTEQEVADLTKRIQNAGTEVVEAKAGGGSATLSMGQAAARFGLSLVRALQGEQGVVECAYVEGDGQYARFFSQPLLLGKNGVEERKSIGTLSAFEQNALEGMLDTLKKDIALGEEFVNK

Legend:
purified protein [1] = substrate: O=C(O)CC(C(=O)O)C(O)C(=O)O; test: purified protein; format: biochemical, Escherichia coli; conditions: 0.05 M NaCl, 0.8 mM NADP+, 1 mM MgCl2, 32.5 mM Tris/HCl pH 7.5, concentration as DL-isocitrate
purified protein [2] = substrate: O=C(O)CC(=O)C(=O)O; test: purified protein; conditions: 0.05 M NaCl, 0.3 mM NADH, 32.5 mM Tris/HCl pH 7.5

| Protein | Km (purified protein [1]) | Vmax (purified protein [1]) | Km (purified protein [2]) | Vmax (purified protein [2]) |
| --- | --- | --- | --- | --- |
| B1 | 21 µM | 46 µmol/min/mg |  |  |
| B2 |  |  | 22 µM | 1490 µmol/min/mg |
